According to paper PMC11200239:

Biological target: MerA variant G415I (P. aeruginosa) (UniProt P00392)
Assay: SEC-MALS

“MerA variant G415I (from UniProt P00392 96-561) (enzyme)” showed a stoichiometry N of 2.
